Reference: patent US20220047729A1

Legend:
[1] = target: recombinant hPD-L2 hIgG1 Fc-fusion protein (R&D Systems) (human) (UniProt Q9BQ51); assay: flow cytometry, control HEK 293 cells, one dose of hPD-L2 Fc fusion
[2] = target: recombinant hPD-L1 hIgG1 Fc-fusion protein (R&D Systems) (human) (UniProt Q9NZQ7); assay: flow cytometry, control HEK 293 cells, one dose of hPD-L1 Fc fusion
[3] = target: recombinant hPD-L2 hIgG1 Fc-fusion protein (R&D Systems) (human) (UniProt Q9BQ51); assay: flow cytometry, HEK 293 cells displaying the PD-1 construct, one dose of hPD-L2 Fc fusion, percent of PD-1-positive cells bound

Sequence of UniProt Q9BQ51 (Q9BQ51 20-219 limits assumed): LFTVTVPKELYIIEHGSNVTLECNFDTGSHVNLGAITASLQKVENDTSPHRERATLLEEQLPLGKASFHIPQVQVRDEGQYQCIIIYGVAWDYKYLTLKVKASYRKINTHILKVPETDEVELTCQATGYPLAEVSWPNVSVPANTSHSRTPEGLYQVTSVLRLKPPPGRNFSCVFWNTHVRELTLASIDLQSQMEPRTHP
Sequence of UniProt Q9NZQ7 (Q9NZQ7 19-239 limits assumed): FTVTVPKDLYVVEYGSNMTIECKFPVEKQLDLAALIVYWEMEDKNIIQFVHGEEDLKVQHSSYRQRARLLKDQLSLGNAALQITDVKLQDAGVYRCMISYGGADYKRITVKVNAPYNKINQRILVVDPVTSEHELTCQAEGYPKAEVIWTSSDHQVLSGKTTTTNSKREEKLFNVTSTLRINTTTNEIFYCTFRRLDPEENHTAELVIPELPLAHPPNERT

Row | average binding normalized to wild type (AVE-hPD-L2) (relative to wild type) [3] | Substance | other results
1 | – | Control (row of Table 2) | average binding normalized to wild type (AVE-hPD-L2) (relative to wild type) [1]: 0.00648; average binding normalized to wild type (AVE-hPD-L1) (relative to wild type) [2]: 0.0144
2 | 1.13 | human PD-1 mutant D77E (hPD-1 Type I mCherry, on HEK 293 cells) (from UniProt Q15116 25-168) (receptor) | –
3 | 0.999 | human PD-1 mutant E84Y (hPD-1 Type I mCherry, on HEK 293 cells) (from UniProt Q15116 25-168) (receptor) | –
4 | 0.82 | human PD-1 mutant E136N (hPD-1 Type I mCherry, on HEK 293 cells) (from UniProt Q15116 25-168) (receptor) | –
5 | 0.967 | human PD-1 mutant E136Q (hPD-1 Type I mCherry, on HEK 293 cells) (from UniProt Q15116 25-168) (receptor) | –
6 | 0.705 | human PD-1 mutant G124M (hPD-1 Type I mCherry, on HEK 293 cells) (from UniProt Q15116 25-168) (receptor) | –
7 | 1.16 | human PD-1 mutant G124V (hPD-1 Type I mCherry, on HEK 293 cells) (from UniProt Q15116 25-168) (receptor) | –
8 | 0.557 | human PD-1 mutant G124Y (hPD-1 Type I mCherry, on HEK 293 cells) (from UniProt Q15116 25-168) (receptor) | –
9 | 0.711 | human PD-1 mutant I126V (hPD-1 Type I mCherry, on HEK 293 cells) (from UniProt Q15116 25-168) (receptor) | –
10 | 0.0105 | human PD-1 mutant I134D (hPD-1 Type I mCherry, on HEK 293 cells) (from UniProt Q15116 25-168) (receptor) | –
11 | 1.11 | human PD-1 mutant I134F (hPD-1 Type I mCherry, on HEK 293 cells) (from UniProt Q15116 25-168) (receptor) | –
12 | 0.0534 | human PD-1 mutant I134N (hPD-1 Type I mCherry, on HEK 293 cells) (from UniProt Q15116 25-168) (receptor) | –
13 | 0.0252 | human PD-1 mutant I134Q (hPD-1 Type I mCherry, on HEK 293 cells) (from UniProt Q15116 25-168) (receptor) | –
14 | 0.307 | human PD-1 mutant I134T (hPD-1 Type I mCherry, on HEK 293 cells) (from UniProt Q15116 25-168) (receptor) | –
15 | 0.125 | human PD-1 mutant K78R (hPD-1 Type I mCherry, on HEK 293 cells) (from UniProt Q15116 25-168) (receptor) | –
16 | 1.58 | human PD-1 mutant K131H (hPD-1 Type I mCherry, on HEK 293 cells) (from UniProt Q15116 25-168) (receptor) | –
17 | 1.03 | human PD-1 mutant L128V (hPD-1 Type I mCherry, on HEK 293 cells) (from UniProt Q15116 25-168) (receptor) | –

Row | average binding normalized to wild type (AVE-hPD-L2) (relative to wild type) [3] | Substance | other results
18 | 1.03 | human PD-1 mutant L128W (hPD-1 Type I mCherry, on HEK 293 cells) (from UniProt Q15116 25-168) (receptor) | –
19 | 0.00438 | human PD-1 mutant N66E (hPD-1 Type I mCherry, on HEK 293 cells) (from UniProt Q15116 25-168) (receptor) | –
20 | 0.0105 | human PD-1 mutant N66Q (hPD-1 Type I mCherry, on HEK 293 cells) (from UniProt Q15116 25-168) (receptor) | –
21 | 1.13 | human PD-1 mutant Q75N (hPD-1 Type I mCherry, on HEK 293 cells) (from UniProt Q15116 25-168) (receptor) | –
22 | 1 | human PD-1 mutant S73K (hPD-1 Type I mCherry, on HEK 293 cells) (from UniProt Q15116 25-168) (receptor) | –
23 | 1.11 | human PD-1 mutant S73R (hPD-1 Type I mCherry, on HEK 293 cells) (from UniProt Q15116 25-168) (receptor) | –
24 | 0.205 | human PD-1 mutant T76D (hPD-1 Type I mCherry, on HEK 293 cells) (from UniProt Q15116 25-168) (receptor) | –
25 | 0.642 | human PD-1 mutant T76E (hPD-1 Type I mCherry, on HEK 293 cells) (from UniProt Q15116 25-168) (receptor) | –
26 | 0.998 | human PD-1 mutant T76N (hPD-1 Type I mCherry, on HEK 293 cells) (from UniProt Q15116 25-168) (receptor) | –
27 | 0.98 | human PD-1 mutant T76Q (hPD-1 Type I mCherry, on HEK 293 cells) (from UniProt Q15116 25-168) (receptor) | –
28 | 0.954 | human PD-1 mutant T76S (hPD-1 Type I mCherry, on HEK 293 cells) (from UniProt Q15116 25-168) (receptor) | –
29 | 1.11 | human PD-1 mutant T76Y (hPD-1 Type I mCherry, on HEK 293 cells) (from UniProt Q15116 25-168) (receptor) | –
30 | 0.0223 | human PD-1 mutant Y68K (hPD-1 Type I mCherry, on HEK 293 cells) (from UniProt Q15116 25-168) (receptor) | –
31 | 0.108 | human PD-1 mutant Y68N (hPD-1 Type I mCherry, on HEK 293 cells) (from UniProt Q15116 25-168) (receptor) | –
32 | 0.202 | human PD-1 mutant Y68Q (hPD-1 Type I mCherry, on HEK 293 cells) (from UniProt Q15116 25-168) (receptor) | –
33 | 0.0334 | human PD-1 mutant Y68R (hPD-1 Type I mCherry, on HEK 293 cells) (from UniProt Q15116 25-168) (receptor) | –
